Assay [1] deals with Cirbp^−/− microglia vs WT microglia. As to the kind of experiment: TNF-α and IL-6 release, WT and Cirbp^−/− microglia with rmCIRP, ELISA. In kind it is cell-based, mouse. As to conditions: CIRP treatment, 24 h, n = 3–4. As for the experimental part:
ELISA was used to quantify CIRP, MD2, IL-6, and TNF-α concentrations in blood and cerebrospinal fluid samples. Samples were processed and stored under standardized conditions to preserve protein integrity. Each target protein was measured using commercial ELISA kits, following the manufacturer’s instructions: Mouse CIRBP ELISA Kit (CSB-EL005440MO, CUSABIO), Mouse TNF-α ELISA Kit (EK282, Lianke Bio), Mouse IL-6 ELISA Kit (CSB-E04639m, CUSABIO), and […].
Primary cortical neurons were isolated from embryonic day 16–18 (E16–E18) C57BL/6 mouse embryos as previously described, and cultured in Neurobasal medium supplemented with B27 and GlutaMAX (Gibco).Primary microglial cells were isolated from the cortices of neonatal (day 1) C57BL/6J mice. After disinfection with 75 % ethanol, the skin and skull were removed, and the brains were placed in ice-cold HBSS. The meninges were peeled off, the cortex was collected, and the hippocampus was discarded. Tissues were digested with 0.25 % trypsin at 37 °C for 12 min, centrifuged at 1200 rpm for 5 min, and resuspended in complete medium. […]
RBCs were isolated via density gradient centrifugation and labeled with CFSE before being stereotactically injected into the right striatum. […] Cell viability was assessed using a Fixable Viability Dye, and flow cytometric analysis was subsequently performed. […]
In general terms: ELISA stands for enzyme-linked immunosorbent assay.

Assay [2] concerns IL-6Rα/STAT3 pathway in microglia. As to the kind of experiment: IL-6Rα expression and p-STAT3 in CIRP-stimulated microglia. The following applies: CIRP stimulation with or without TCC. The class given is cell-based, mouse. As for the experimental part:
Brain tissues were fixed in paraformaldehyde, dehydrated, and sectioned at 30 µm using a microtome (CM1900UV, Leica, Germany). Sections were floated onto glass slides and left overnight at room temperature. For cultured cells, after discarding the medium, cells were washed twice with PBS, fixed with precooled 4 % PFA at 4 °C for 10 min, and washed three times with PBS (10 min each) on a shaker. Cells were permeabilized with 0.3 % Triton X-100 in PBS for 20 min, blocked with 5 % donkey serum for 1 h, and incubated overnight at 4 °C with primary antibodies (Iba-1, Rabbit polyclonal, Wako; NeuN, Millipore; GFAP, CST; MBP, Abcam; SMI32, Millipore). The next day, sections were brought to room temperature, washed three times with PBST (PBS + Tween-20), and incubated with secondary antibodies for 1 h in the dark. After three more PBST washes, samples were mounted with DAPI-containing medium and sealed. Fluorescence was visualized using a DM4000B microscope and images were captured with a Leica TCS SP8 confocal microscope. […]
Brain tissue adjacent to the hemorrhagic striatum was homogenized in lysis buffer with protease inhibitors. […] The supernatant was collected for protein quantification using the BCA method. […]

B1: recombinant human CIRP (cold-inducible RNA-binding protein) (natural protein, UniProt Q14011 1-172, looked up)
chain: MASDEGKLFVGGLSFDTNEQSLEQVFSKYGQISEVVVVKDRETQRSRGFGFVTFENIDDAKDAMMAMNGKSVDGRQIRVDQAGKSSDNRSRGYRGGSAGGRGFFRGGRGRGRGFSRGGGDRGYGGNRFESRSGGYGGSRDYYSSRSQSGGYSDRSSGGSYRDSYDSYATHNE
notes: UniProtKB Q14011 is printed for the docking; also called rhCIRP; human CIRBP; source: recombinant
In the case of B1, the “IL-6 and TNF-α secretion, Cirbp^−/− vs WT microglia” value in assay [1] is “marked decrease in the secretion of both IL-6 and TNF-α levels”. In addition, in assay [2] (immunofluorescence), the “IL-6Rα expression on microglia” value is reported as “IL-6Rα expression on the microglial membrane significantly increased”. Also, the “p-STAT3 level in microglia” value in assay [2] (western blot, n = 6) was “increase in the p-STAT3/GAPDH ratio compared to the PBS control group”.

For the origin of these results see publication PMC13227277, “Targeting CIRP and IL-6R-mediated microglial inflammation to improve outcomes in intracerebral hemorrhage” (Journal of Advanced Research, 2025).
